The supplement of paper PMC9116672
± gives the standard deviation of the averaged measurements or the uncertainty stated by the source.

How the values were obtained:
[1] = duplex melting temperature (HRM, EvaGreen); higher = more stable duplex
Experimental: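 Listed DNA strand annealed 1:1 with its complementary strand (95 °C 5 min, 0.1 °C/s to 20 °C). Melted in 1x NNE buffer (500 mM NaCl, 10 mM Na2HPO4, 1 mM EDTA, pH 7.0) with 1x EvaGreen on a LightCycler96 (37 to 97 °C, 0.1 °C/s). Tm is the peak of -dF/dT at the stated total duplex concentration; 4 replicates are averaged. PS oligos are non-stereospecific (Rp/Sp mixtures).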

[2] = duplex formation free energy ΔG50 (Van't Hoff fit of HRM Tm); higher = less stable duplex; conditions: temperature for dG: 50 °C, NaCl: 500 mM (unadjusted)
Experimental: (§1)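 Duplex of the listed DNA strand with its complement, in 1x NNE buffer (500 mM NaCl, pH 7.0) with 1x EvaGreen. ΔH and ΔS come from a Van't Hoff linear fit of 1/Tm against ln(CT/4) over 1-20 uM, using HRM Tm values.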

[3] = duplex formation enthalpy ΔH (Van't Hoff fit of HRM Tm); higher = less exothermic duplex formation; conditions: temperature for dG: 50 °C, NaCl: 500 mM (unadjusted)
Experimental: as §1

[4] = duplex formation entropy ΔS (Van't Hoff fit of HRM Tm); higher = smaller entropy loss on duplex formation; conditions: temperature for dG: 50 °C, NaCl: 500 mM (unadjusted)
Experimental: as §1

[5] = duplex concentration 1 µM, backbone: PO-PO (both strands phosphodiester DNA)
[6] = duplex concentration 1 µM, backbone: PS-PO (listed strand fully phosphorothioate, complement phosphodiester)
[7] = duplex concentration 1 µM, backbone: PS-PS (both strands fully phosphorothioate)
[8] = duplex concentration 2.5 µM, backbone: PO-PO (both strands phosphodiester DNA)
[9] = duplex concentration 2.5 µM, backbone: PS-PO (listed strand fully phosphorothioate, complement phosphodiester)
[10] = duplex concentration 2.5 µM, backbone: PS-PS (both strands fully phosphorothioate)
[11] = duplex concentration 5 µM, backbone: PO-PO (both strands phosphodiester DNA)
[12] = duplex concentration 5 µM, backbone: PS-PO (listed strand fully phosphorothioate, complement phosphodiester)
[13] = duplex concentration 5 µM, backbone: PS-PS (both strands fully phosphorothioate)
[14] = duplex concentration 7.5 µM, backbone: PO-PO (both strands phosphodiester DNA)
[15] = duplex concentration 7.5 µM, backbone: PS-PO (listed strand fully phosphorothioate, complement phosphodiester)
[16] = duplex concentration 7.5 µM, backbone: PS-PS (both strands fully phosphorothioate)
[17] = duplex concentration 10 µM, backbone: PO-PO (both strands phosphodiester DNA)
[18] = duplex concentration 10 µM, backbone: PS-PO (listed strand fully phosphorothioate, complement phosphodiester)
[19] = duplex concentration 10 µM, backbone: PS-PS (both strands fully phosphorothioate)
[20] = duplex concentration 15 µM, backbone: PO-PO (both strands phosphodiester DNA)
[21] = duplex concentration 15 µM, backbone: PS-PO (listed strand fully phosphorothioate, complement phosphodiester)
[22] = duplex concentration 15 µM, backbone: PS-PS (both strands fully phosphorothioate)
[23] = duplex concentration 20 µM, backbone: PO-PO (both strands phosphodiester DNA)
[24] = duplex concentration 20 µM, backbone: PS-PO (listed strand fully phosphorothioate, complement phosphodiester)
[25] = duplex concentration 20 µM, backbone: PS-PS (both strands fully phosphorothioate)
[26] = backbone: PO-PO (both strands phosphodiester DNA)
[27] = backbone: PS-PO (listed strand fully phosphorothioate, complement phosphodiester)
[28] = backbone: PS-PS (both strands fully phosphorothioate)

Sequence	duplex melting temperature [1, 5] [°C]	duplex melting temperature [1, 6] [°C]	duplex melting temperature [1, 7] [°C]	duplex melting temperature [1, 8] [°C]	duplex melting temperature [1, 9] [°C]	duplex melting temperature [1, 10] [°C]	duplex melting temperature [1, 11] [°C]	duplex melting temperature [1, 12] [°C]	duplex melting temperature [1, 13] [°C]	duplex melting temperature [1, 14] [°C]	duplex melting temperature [1, 15] [°C]	duplex melting temperature [1, 16] [°C]	duplex melting temperature [1, 17] [°C]	duplex melting temperature [1, 18] [°C]	duplex melting temperature [1, 19] [°C]	duplex melting temperature [1, 20] [°C]	duplex melting temperature [1, 21] [°C]	duplex melting temperature [1, 22] [°C]	duplex melting temperature [1, 23] [°C]	duplex melting temperature [1, 24] [°C]	duplex melting temperature [1, 25] [°C]	duplex formation free energy ΔG50 [2, 26] [kcal/mol]	duplex formation free energy ΔG50 [2, 27] [kcal/mol]	duplex formation free energy ΔG50 [2, 28] [kcal/mol]	duplex formation enthalpy ΔH [3, 26] [kcal/mol]	duplex formation enthalpy ΔH [3, 27] [kcal/mol]	duplex formation enthalpy ΔH [3, 28] [kcal/mol]	duplex formation entropy ΔS [4, 26] [cal/mol/K]	duplex formation entropy ΔS [4, 27] [cal/mol/K]	duplex formation entropy ΔS [4, 28] [cal/mol/K]
TCTCGCGGTTCCATTA	62.7 ± 1.2	56.3	50.4 ± 1.6	67.08 ± 0.63	59.34 ± 0.38	54.64 ± 0.23	68.7 ± 0.86	61.95 ± 0.17	57.28 ± 0.084	70.24 ± 0.58	63.21 ± 0.18	58.48 ± 0.13	71.59 ± 0.45	64.2 ± 0.12	59.42 ± 0.15	73.26 ± 0.38	65.517 ± 0.063	60.81 ± 0.1	74.35 ± 0.18	66.61 ± 0.15	61.53 ± 0.15	-12.1 ± 0.14	-10.99 ± 0.07	-9.954 ± 0.074	-61.4 ± 2.4	-64.3 ± 1.7	-59.3 ± 2.9	-152 ± 7	-165 ± 5.2	-153 ± 8.8
GCTGAACTAACCACCA	62.4 ± 1.2	55.12 ± 0.072	47.5 ± 0.78	65.29 ± 0.31	57.81 ± 0.12	50.39 ± 0.32	67.03 ± 0.25	60.12 ± 0.057	52.54 ± 0.26	68.36 ± 0.31	61.33 ± 0.085	53.74 ± 0.18	69.23 ± 0.2	62.13 ± 0.097	54.62 ± 0.096	70.53 ± 0.31	63.33 ± 0.14	55.67 ± 0.093	71.61 ± 0.45	64.15 ± 0.058	56.62 ± 0.25	-12.7 ± 0.18	-10.92 ± 0.045	-9.252 ± 0.03	-77.7 ± 3.3	-73 ± 1.3	-69.9 ± 2.3	-201 ± 9.6	-192 ± 3.9	-188 ± 7
